Test results reported in a protein production outcome set (Wang et al. 2014).
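Note: failed if final PepcDB status was selected cloned or expressed and not failed if soluble or beyond.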

Assay: label from the status in PepcDB records
For “MITNAFNEYKNEYAFDNVYGHLIEILKRNLDISTESGVVHLDIGCGYGAIAEHITGEVGRVYVGIDANKSGLKSLKDRGFETHEHFLESQEDALSFFERVIGDRKLGSISMLDTLEHLPNGLSILKAIATLASKHSAMVAISVPNIQHRDIGFKLALGSIAYTDAGLLDHTHVMMYDYDHLDRVLRHAGLRICDQNHVRVNHSDQFFPRDHPVLQNATTIRTFLKYVRANVNDQDQINQFVVAALPCEPITGPTFEAVRDVDRPFLSIVTRTQGKRIHTLVEYFTCLAGQVCRDFEVFVVGHRLSLERQIAIEQVIEDLPLWLRDKTKLIRVDHGNRTHPLNVGFAQANGRYIAIHDDDDIPMGHWVDSFRKLAIENDGALLRCVSSLQHVETVSLRGRDGVRSIGKTGPFPSEFDFIQHLSGNYSPNNTLAFPRGVFHHLNMRFDENLTTTEDWDYIMRVASVVGVASSPEITGTYQWWEKGNSLAMHTDNEWALNKAWIQEKLDARPILIPAGTVRKILSLWEHANNVATQLDAVSHRNAIIEGQLGAMSQYDIDVQAQMKAISDHVNFLKSEIDRNRNEAVDQQYLLREIGDIIDSTSWKLSAPMRWPKRILGARSSRLTDHLGSSVQQLQETKRRLLSSRSWRATRPMRAVARLFKVHPI”, the protein production was “failed”.
In the case of “MITQRQNDILNLIVELFTQTHEPVGSKALQRTIDSSSATIRNDMAKLEKLGLLEKAHTSSGRMPSPAGFKYFVEHSLRLDSIDEQDIYHVIKAFDFEAFKLEDMLQKASHILSEMTGYTSVILDVEPARQRLTGFDVVQLSNHDALAVMTLDESKPVTVQFAIPRNFLTRDLIAFKAIVEERLLDGSVMDIHYKLRTEIPQIVQKYFVTTDNVLQLFDYVFSELFLETVFVAGKVNSLTYSDLSTYQFLDNEQQVAISLRQSLKEGEMASVQVADSQEAALADVSVLTHKFLIPYRGFGLLSLIGPIDMDYRRSVSLVNIIGKVLAAKLGDYYRYLNSNHYEVH”, the protein production is reported as “failed”.
With “MITQVNQLDELQLKDLKTLRAECKKNDGSIPNLYIHILKQHRSLPTSFLYYQNGALIGFLSIYFFYDDAVEVAVLVSPQYRRQGIAKQLIKEALPLIKSQNYFNLIFSCPSRLNDNWLTSKGFTYLHSEYFMERDDLNPILDYIR” the protein production was “not failed”.
In the case of “MITRLVLATAGAAVALGLPADVRAYEYEQEATTKLMTDMIVDLGGHDTVRRNSGKTVRCGDGGTRRVSIVRRGATTTYRGDYRNCRERGLTRDGFYEIVFKGDEIVSSTSKRSVNGELFDAAMAGNAAGVRKLIRARADVNYTESVDRTEGGTIDGVSPLMVATMAGSLDTVKLLVANGAWVNYLNSMAVNALWIAAHNGHPEIVRYLAGRGAYLNNSNVEDVTPLMAAAMNGHLAVVKFLVGAKADINAVHRDGDTALMFALAQNRTDIARFLIDAGADVAVRNRHGVTALLIAVAEGNEEIVRALLERKADVSVRTADGKSALDVARARGMDGIAKLLEAAGSY”, the protein production is reported as “failed”.
In the case of “MIVASRSPLPLAPPMLFPASDDDVPFDDAPRILLFTGKGGTGKTTCAAATAQHAARQGHKTLVLSSDPAHSLADALDQELGPEAREVRDRLFAQEVDLYYSMKKHWGHMRELMLTVFRWQGVDQIAAEELAALPGMNEGSVLLWLEEALREADYDLIVVDSAPTGETLTLLTLPQVTQWWLAKAFPFQKMAVKSLGFGVRKATGIPLDKGYEELEVIFEKLERVQQVLATPSTTSIRLVTNPEKMVIEEARRAFTYLQLYGYGVDSVVVNRVLPEEEVPADSFFEGYVESQREYLEEIEQSFRPLPILQVPHLGEEVFGAERLGRIGDAMYAERNPTDVFYDEPTFTVEEDGDAYVLNLRLAFATEADVDVRQLGDQLVVQVANQRSNVILPNFLNYYHMTNAALEEGWLRVRFTPDGEASSN”, the protein production is reported as “failed”.
In the case of “MIVAVESLDTSKKRKLHAEESDLLPLPKHFCSEHQASLVNSSCPSSVIDYAECSYAMENTKTSDEASSSASFTGPSLYMFKDSIYSTGSSSSGYAATSSIEQCFSKVDHKTQEDTQDFTHMEFIYHDSEFAVEDLQEVLNPVESYILSSARWSVSNQDSKEATTKPTIDQEFEQYFSTLMM”, the protein production is reported as “failed”.
With “MIVFKAENLSVGYNGVKAVSNINFSAKQGEIICLLGPNGAGKTTIIRTLSGLLPPIEGEIHINGKSLSTINKKLLAQTLSVVLTEKPSFDVMTAFDVVSLGRFPHTGFFGTITKEHEIKVVEALKTVGALNLIDKYFHILSDGERQKVMLARALVQEPQIIILDEPTTHLDINHKIELLNTLKNLSRTAKLTVILSLHEIDLALKYCDKVMLVENKKVLSFGSPETTVNGETINKLYGIKNASFNPITSSIELKNSEKSNIYVIGGCGFGTPIYRLLSKYNLGFSTGILHENDIDYETAKTMSLRLQSEKPFQKISKISFEKALAAVASSDIIIDSGFPIGETNEKNLNLLNYAVEKNKRVITFRKYFNSTMSYCSNKDALIDFILRLEHHHHHH” the protein production was “failed”.
With “MIVIEKLTVDMARGVENNLEGLQIFVAVAEAGGFTAAAERLGMTKANVSLQVGRLEAQLGATLFTRTTRRVKLTEAGQALYLDAQPALAALRDALLQAGHGAAELSGTLRLTAPVSHMAESVAPAATQFIRRHPGLQLELHAIDRMVDLVAEGMDLAIRLGTLRDSSLRALKLGEFAQQLVASPAYLRERGMPAHPGELAGHDWVALTLLKTPLTWRFAGAGGAEETVRMRARIKVDSAASLRSLLLAGAGMSVLDSFSVQEDLRQGRLIHLLPQWTLPKGGVYAVFPPGRHAPAAARAFVEFYRVLLARPV” the protein production was “failed”.
For “MIVIYFFSTKSQQFFAYVWAIFPVIAFFLVSFYTLDFLFSPSYLIMVPVFTIMFKINYKKDYSFVALLKMSIRQFVISFLAFIASSSFSWSIILNSSVTFLIVYLFYSSATPMRYHSYLMMFTFCQLIQVKGNTFLMQSQVVAFLIGLFLLALTLNAWWQTGLRQLTSLKSRGHVRFFKSIQLNMKQQKLAVINFWHDLQQIFFGITSFKQFLESPDERVQRFRLAIRMSFTITLSFILMWSVGGIKIIWIPMNVFLLLHPVKAEMNTRIKTRFWGTLLGCFLSLFVVNWLQLPLTHLIVSSLIGIFVYALKPGTVLQVTMATIFGLCLATISLRGMYAAELRVSFVLLAIFVVCLIDLGLFVYQRILRF”, the protein production was “failed”.
In the case of “MIVKCPICDGTGKKVVKYKTCPVCEGTGFIDEFSPKQHMKRVSKRATYDLDYGEIPCPKCKGTGKVPVYAKCDFCGGSGKVVKCDRCGAIIGKYPDFKDRTLCDKCLKEEEERKKGLRNVYVFDELATFYDVEPGKFYKGVVTRIEKYGAFINLNEQVRGLLRPRDMISLRLENLNVGDEIIVQAIDVRPEKREIDFKYIPLTTYDLVKYEKEVPLSQIKDISQNLVEMRDQVVHIRGEVVQIVQTPGPTVFTITDGTDFAWVAALEIAGLRAHPDVKVGDIVDVIGRVTIRDGRLQIERIKLQKLEGDEAEEIRKKIEEEIDRRAEPAKDIPFLVKSEVLERLRPKMADVAKRIRKAVLDGRPIIIRHHADTDGYCGGIALEKAILPIIDKFAIDVDAIWHFFKRRPSKAPFYELEDVTKDLVFSIEDALKFGQKLPLIVLIDNGSTDEDIPAISKAKAYGIEVIVIDHHFPGEVVDGKVEVDDYVDAHVNPYLVGGDSNLTAGVLGTEIARMINPDVEDEIKHIPGIAVVGDHAKGEEAEQYVKIALDRLNELSKKYGKGRTYDREYLEKIALCMDFEAFYLRFMDGKGIVDDILATNIKEFGRHEELIDILYEQAMKMVERQMKAVIPALKTEFLENGIILNTLDVEKYAHKFTFPAPGKTTGFAHDYIVQKYGEDKPIITLSYGPDFGVVRATDAVHEKYNFNLNLIVEQLMEEIPEASLDGGGHECAGSLKFVEGLRDKVIGRFIEIIKNMKPKEQ”, the protein production is reported as “failed”.
For “MIVMSKNVDEAISRKEEKCIMSFIPNMITIANFVCGLLAIYAVFVHDIYLGAVFIITGMLFDFFDGMVARKLDSVSEIGGELDSFADLVTFGVAPSILAYSASLKDLQSIGMICALTYSICGMLRLARFNTQQSKLPTFIGMPIPFAAMCLLILCFLKNPVSVAFGTCVLAYLMVSKIKFPHFKKDIAESLKPGRLD”, the protein production was “failed”.
